experiment: soluble fraction after stress (log2 fold change); higher = more stays soluble; pooled small domains, quantitative proteomics; conditions: stress: pH 4
Summary of the method: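 Aggregation propensity is read out as the fold change in how much of each domain remains soluble after acid stress. The custom small-domain libraries were pooled, held at pH 4 and analysed with high-throughput quantitative proteomics. On the log2 scale used, higher values mean more of the domain stayed soluble.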

Row | Sequence | soluble fraction (log2)
1 | HMKSAIGEEKAENFAFADLGMDPLSAEGVRTEFGFEQGQFVYKVYFTADGTEYEYWIKASDGSVVKKGMDL | -1.33
2 | HMKSAIKQNILLYLSNKGVTSYEFYKISGVTRGILQQSNGISEDNIAKFLAYAPDVNIEWLLTGKGDMLKH | -0.325
3 | HMKSATGKIPDFISDLPVDEFVRELIVTNAFQPLNKFKEVQNHIGSALKIYVDELTEKRANGTVHILYSHK | -0.324
4 | HMKSAYADVAIAKVQDYVNVRAENNEDSEVLGKLYNNSAATVLETTDDGWYKISSGSVTGYVKSEYVVVG | -1.04
5 | HMKSEMYIDLSNALLKMSERDKELLTYRYTMEMSSKEISQITGIKESNVNSYIRRAREKLLKIFNAMNK | 0.123
6 | HMKSFDERQAALNELAKVIEGTGRKAEQDAEFRREQNQLMIDKIDEQLKGDLTDSQREELKKERAALARK | 0.0649
7 | HMKSGLLNLSTRKQEKIKQALLSEFSNVSLLEAKVANIVTLAEISRGSFYTYFEDIYDAYQWLASI | 0.22
8 | HMKSIFIRADELAAELDVSKALAYKMINQWNEELKAKGYTTVGGRVSRQYYYEKIYGAENVFDF | -1.78
9 | HMKSILDDVVGLGPVRKKALLSAAGGFRKLRDMDVDEVIGLGAVPEEVAREVVTVLAQYNGERDRVEGL | 0.104
10 | HMKSILSEIPGIGPKKRKSLMMQFGSVKNISEASLKDLSSTKGINSNLSKEIFNFFSVEKNN | 0.15
11 | HMKSKNILLGEYKGKEVHVGEGKYGPFILYDKKFKSIGAYLTENSLMLKDLTIEDYSKIMKFTENSNSKS | 0.0285
12 | HMKSKNRLTKSYLDSIPGVGRKRKSILLRYFGSIDQIKRASSEDIANVPGIGKITSDLVYNYFNQ | -0.23
13 | HMKSLAQELVDALGDRIRDGRLKVGDKLPSEAAIEAQYGVSRTVVREAISRLQAAGLVVTRHGIGTFIVGI | ≥ 0.43
14 | HMKSLLDQINGIGAIRKRALLNHFGSARAVESASLDEIKSVEGVEAKVAKKIYNFFHEYKNMLR | 0.0807
15 | HMKSLLSRREQEVLELVSRGFSYSEIAELKNLSVHTIQTHIKSLYGKLEVHSKMEAVLEATRMGLLPQ | -1.12
16 | HMKSSLAKNLETLMQERQISQTRLSKISGVSQSYIFKILNDQIKKPSLDTLEKLATALDSTVAQLNH | 0.191
17 | HMKSSTEIIYSDFLREVSNGQISEVTIQGDFVRGLFLSGSSFQTYAPKDSNLINILRDKKVRIKVHPP | -0.11
18 | HMKSTELSIIEALRVLGLKHGASQDSIKKSYRRLVKQHHPDLGGSADSFRKVNEAYQLLIMN | 0.0586
19 | HMKSVILQLHPETLRWIREEAQADMADASVIQLLNDWELGTKKPTLSQVQKLSHETHIPFGYFFLKEKPA | -0.203
20 | HMKSVQIPQSITVKEFSQAIEVSVADVIKKLMSMGVMVSQNKEINVDTAILVGEEFGVTVNVA | -0.0481
21 | HMKSVTVIFKESGNVVSSKKLSVVATAQYVDKSRITAPAGYRIATTDSKLKISENNTVTVEVK | -0.1
22 | HMKSYTYNPNYLSDYNAYRLGIPLEALERLQLHRSTGRYVNSLSDFQSVTGISDSLKHSLSSSLRFPN | -0.564
23 | HMKTDLQIQQDVMAELKWEPKVNAAHIGVEVKHGVVTLSGHVDSFAEKWNAEQAAKRVAGVKFIAIELDV | -0.0349
24 | HMKTEIKSPLPGIVLKIFVRTGEYVDKNQRLFSLEAMKMENEIKAERAGVIAGIRISEGQSVLQDEVIMEM | -0.288
25 | HMKTFQSYQTTSMSNVNLRKRANGTSTILKRIKVGDTVTVVGKSGNYYQIQFDGKEGYALIKYIDGTDSGA | -0.107
26 | HMKTFSTRLIALREAIGVNQSELARRVGVTPQAVQKWESGANGPRGKRLEKLASELRSTVGYLVSGEGDG | 0.0382

Row | Sequence | soluble fraction (log2)
27 | HMKTGAKLKNLRKMKKLSQEEVAKVLNLSYSTLSRWENDTRIPTYEDLFKLGQFYGVSVDYLSDPN | -0.853
28 | HMKTGNIITVSLVWKGKYYMIRMFFPSASRPTRSDVQNEIEKVYPGSKLSTFSVSDYEPGQPLLQV | -0.092
29 | HMKTGNPYAQRNTADMYNYGRGIEKDSYLAFVWYFAAYKQGNDNAKPQIDSITASGHLSPNQQLHAKIE | -0.304
30 | HMKTIQVGSTVRVNQGAKTYSGGGLASFVYKRNHKVSQLQGDRAVITYEGTVVAAVHVSDLSLIH | -0.801
31 | HMKTLELIAAIRKRIAGGYAGADGRLPNIGEIAKDFSVSPMTAQKAVRALVEAGVLTSTRRKGVFLKQPAS | 0.354
32 | HMKTLGMDKGVNIALNDAGLRAEDVSNLSAHYDTEDGVPVYEIKFTAGGFSYEYQIKASDGTIIEADRDAA | -0.0393
33 | HMKTMAVYPVGTRVLTSDGEIGVVEKQNSEAPERPVIKILKGADGHDYEKPDFKDLMKILTLFIVDTI | 0.0457
34 | HMKTMSLSSIEKAIYKTKYENEPTSQRLSRIESSVFGTNFSQDSESERIARISSAINAQKSAK | 0.22
35 | HMKTMTTIRKGSRGDTVATLQRKLNLIADGIFGPITDEAVRDFQKSHGLAVDGIVGPKTWAALGVGS | 0.354
36 | HMKTNQINVSGLSKEKNFEVLESLDVYKFYNLFFLNKIKIDQLINSYNHIDNYSVFKKYPSSLIVKLSE | -0.0619
37 | HMKTPETSEYVVQAGDSLRRILTERYGAKEQDLPYLYRQFRLLNPKVSSLDNIHAGTKVRIPLVASVL | -0.0112
38 | HMKTPRKVFTVLIRNTEYDVYDIDGKEHQGYNDTPKTWWLYHSERLPEGMIPPIDSDSWKPYSVGT | -2.19
39 | HMKTTKESLLEYIQREVFTDSIHKEGLSTNEIADAFQIQRSNVSSLLNTLVKEGKLEKTTGRPVLYRIPEK | 0.0777
40 | HMKVEFDAMDKRILELMAKEYDTVLMARHLPLTPIVIDVRKKRIREVLNLPDATDAEIVIEAKEKDII | -1.47
41 | HMKVEIVRVVKDIHIGDEITKDMVRTVEVGGYNLPDGVVKDTATVIGRFASADMVPGDYIISSKIADAP | 0.0866
42 | HMKVELSENEKIIYDLLSNQEVLLSEIKDKAELSNKAWDKSTKSLRKLGLVIVEKKDDNIYISKS | 0.368
43 | HMKVGEIIKAKREELKIPLVNFAKELDISQGYLSQIENGIKTNPNLDIILKIIHRLDIDLAMLL | -1.02
44 | HMKVIAEESYRILVDAIEKLPPQMKSIMQLALEGKSNPEIAETLNISGETVHSQKKIAYRKLRVYLKD | -0.144
45 | HMKVIETKYNTYVVKSGDTLYSVAKKYGISVTELKEINDLSNNTLSIGQKLLVPATTIIIDE | -0.525
46 | HMKVNMIIVMKPGARETDIQEVSNVLKSAGLGVHISKGTERTIIGVIGDKRLLNGIPLDLMHGVDKLVPIM | -0.0619
47 | HMKVNQFEVEGNQRYSTEEIAKASGVSKGDNLFLVNKTETARKLLDELAYVRSVNIKRKLPDTLVITVAE | 0.331
48 | HMKVPDVQYMNKDSAIEALTANELKYTIVEAENENVAAGVVISQSVERDSQVAPGTSVELVVSTG | -0.741
49 | HMKVQEMTANSFLTQWEAGNVKTLDILPEGIIKGELNDGTKFQLYYSSAAGLIDDVKKNPEKFANTTVSEK | -0.238
50 | HMKVQEVDYGTFLTMVDEGKVNQVDIENSKQITFNTKGDKNKVYITGQVNDPELVNRLYKAGVEFSQEIP | -0.674
51 | HMKVSNWYFNGAPSATTPPTSQWTTEKDKKAHIGDTFTSLDKSPSPNAGKSWRYTPSYTWEEIV | 0.0965
52 | HMKVSRTAVKLHHANAVEVAKKLQPLFVVGDVQIEPVKDAGIILLKGPASTLADLRESIVQMDHTA | -0.309

Row | Sequence | soluble fraction (log2)
53 | HMKVTRWEDTGMKPAEAQEWQHYDFKPQEAMNWRDAGFVPLVARTWSDKGFDASEAQAWRDSVRNS | 0.123
54 | HMKVVEKHIVPQIQNPIRLQEYASSIFKTITTRSGIKKAIKKQLILLNRKPANTGDWIKEGQLLELLAEE | -0.569
55 | HMKVYIKDISDLSDKLKSLLIENDIDDSNKLFEVEDQVLLEIKGLGSKTIDKIKDIVTEYLKKNN | -0.38
56 | HMKVYPIMEAIANNNIELVKLLLEYHADLNIKDSNGNTPLALAKETGAKEVEDLLLQWMKQHT | -0.834
57 | HMKWGDTPTVEVPNLIGMKKKDLQTQLVDLKLDISGDGEKVIKQSPEAGAKVKEGSKIRIYFG | -0.0575
58 | HMKWYDSDKGFGFLSQEEGEDVYVRSSALPAGVEGLKAGQRVEFGIASGRRGPQALSL | -0.71
59 | HMKYKKYKLLKDLPTFKAGQLAYISKTGNLIAGTPENQKTTETGLIIMIYHETTLKKFPNILTEWFEEIE | -1.17
60 | HMKYNGDRPVFNDDVAWAKWMLENPAKITSHDKENLSSMLKKPEVVMLFEAEDLSVPDLRTLAKE | -0.349
61 | HMKYNYEAQQSDELSLVKGSRIHVLEKSSDGWWKGEIDNVVGWFPS | -0.102
62 | HMKYRLLGENLQTIRKARGMKQQELADQIGINMQSLSKIERGLNYPTFETLEKIMNALGITPNELLSG | -0.798
63 | HMKYRPGDVVTLRVARMGEMGAFLDAGTGNTNDDILLHKMQQTEEIKAGQDVKVYLYLDPNRRLTASMKL | -0.0269
64 | HMKYSNDEVERDLYVRGVIYQIGDLVENKLDGTSGEVVRRGPNYVQYTDGENFYKAFLSALQEQK | -1.04
65 | HMKYSYAELTKLQEQIAQDRNAPLTVPNALGIGLDERNNVIEITVNIADEAAAKAYYLQKYGDRISLKTTD | -0.243
66 | HMKYTEEIFNILSRGGFISANSVSSTVKRYYDALEEDFTEYYDYYKGIGFYLEAGNGYYLFTR | -0.064
67 | HMKYTVKSPLPGVIMSVLVKVGDTVKASDTVISLEAMKMENAIHAGRDGKVTSIDVNVGDSVLEGHTLVTI | -1.04
68 | HMLAAGTPLTVVTESSNLNIRQEPSTEAAVVGKAAKGEIVTLVEQTSGEWWKVSTKDGEEGYAYSRYL | -0.809
69 | HMLAAGTSLTVDTESSNLNIRQEPSTEGVILGKAAKGEVVTLVEQSSDEWWKIKTKDGEEGYAYARYLR | 0.0235
70 | HMLADRANMAPAALRQIMTAIDGGNVTPKQIESATGMAHATVARALRKMLDDGLIANDGKGRYTVLT | 0.238
71 | HMLADTNIHTIALKHRLANEVVEQVRPFLPETATIRAYDNMLILKSDRATLANVEQLIKKLDT | 0.228
72 | HMLALVREQIERNVSNPTDEDIRKIRHDVMEVITRAGADAATVDIAIEIDSQKNILRAIATGATEL | -1
73 | HMLAMHVVESVGGAEQFTKLQNFAKTQNADYQKMWNDTMNSGNVLAIKTMLSGIQSDMIAVQ | -0.466
74 | HMLAQDVIVKQDGGTILSKVLEIGTQEIAYKKWNSQDGPVYKIAKDQVLSVNYQNGEVDRFA | -0.233
75 | HMLAQISDEGAIGAVVARVLDAHPNEVARYHAGEEKVAKFLMGAAMRELRGKGDPAVVQRLLSEGLDARRV | 0.294
76 | HMLARPTANELVKEMQRRAKEQRTELPPDAARDLLERSGQDQFLLGNEVDKLAALSGYTTITREMVAQAGT | 0.0328

Reference: the domain aggregation screens of Martell et al. (2025)
